What was measured:
[1] = target: T1, PD-L1 (on CHO-PD-L1 cells) (UniProt Q9NZQ7 19-290); assay: FACS binding; Fig. 25
[2] = target: T1, PD-L1 (on CHO-PD-L1 cells); assay: FACS binding; Fig. 22

T1 sequence (Q9NZQ7 19-290): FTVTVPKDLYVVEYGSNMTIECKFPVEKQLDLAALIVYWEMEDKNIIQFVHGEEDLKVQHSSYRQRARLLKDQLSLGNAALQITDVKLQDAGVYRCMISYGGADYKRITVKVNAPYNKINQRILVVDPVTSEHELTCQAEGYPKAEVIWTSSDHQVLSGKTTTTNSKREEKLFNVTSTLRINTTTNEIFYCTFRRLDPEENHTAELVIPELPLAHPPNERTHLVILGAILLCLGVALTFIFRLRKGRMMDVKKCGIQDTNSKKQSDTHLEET

| EC50 [1] [nM] | EC50 [2] [nM] | Binder |
| --- | --- | --- |
| 1.53 |  | R1110: TIGIT_VH_IL15RA (sushi65 T2A)/TIGIT_VL_IL15/PD-L1-Fab (bispecific antibody) chain 1: QVQLVQSGAEVKKPGSSVKVSCKASGYSFTSYWMNWVRQAPGQGLEWIGMIRPSDSETRLNQMFKDRVTITVDKSTSTAYMELSSLRSEDTAVYYCAGIHDYGHGAYWGQGTLVTVSSGGGGSGGGGSGGGGSGGGGSGIACPPPMSVEHADIWVKSYSLYSRERYICNSGFKRKAGTSSLTECVLNKATNVAHWTTPSLKCIREPKSSDKTHTCPPCPAPELLGGPSVFLFPPKPKDTLMISRTPEVTCVVVDVSHEDPEVKFNWYVDGVEVHNAKTKPREEQYNSTYRVVSVLTVLHQDWLNGKEYKCKVSNKALPAPIEKTISKAKGQPREPQVYTLPPSREEMTKNQVSLTCRVKGFYPSDIAVEWESNGQPENNYKTTPPVLKSDGSFFLASKLTVDKSRWQQGNVFSCSVMHEALHNHYTQKSLSLSPGK chain 2: DIQMTQSPSSLSASVGDRVTITCRASENIYSNLAWYQQKPGKSPKLLVYAASHLPDGVPSRFSGSGSGTDYSLTISSLQPEDFATYYCQHFWGTPRTFGQGTKLEIKGGGGSGGGGSGGGGSGGGGSGNWVNVISDLKKIEDLIQSMHIDATLYTESDVHPSCKVTAMKCFLLELQVISLESGDASIHNTVQDLIILANNSLSSNGNVTESGCKECEELEEKNIKEFLQSFVHIVQMFINTS heavy: QVQLQESGPGLVKPSETLSLTCAVYGDSITSGYWNWIRKPPGKGLEYIGYISYTGSTYQNPSLKSRITMSRDTSKNQYYLKLSSVTAADTAVYYCARSRAWIRTYFDYWGQGTLVTVSSASTKGPSVFPLAPSSKSTSGGTAALGCLVKDYFPEPVTVSWNSGALTSGVHTFPAVLQSSGLYSLSSVVTVPSSSLGTQTYICNVNHKPSNTKVDKRVEPKSCDKTHTCPPCPAPELLGGPSVFLFPPKPKDTLMISRTPEVTCVVVDVSHEDPEVKFNWYVDGVEVHNAKTKPREEQYNSTYRVVSVLTVLHQDWLNGKEYKCKVSNKALPAPIEKTISKAKGQPREPQVYTLPPSREEMTKNQVSLWCLVKGFYPSDIAVEWESNGQPENNYDTTPPVLDSDGSFFLYSDLTVDKSRWQQGNVFSCSVMHEALHNHYTQKSLSLSPGK light: DIQMTQSPSSLSASVGDRVTITCSVSSSISSSNLHWYQQKPGKAPKPWIYGTSNLASGVPSRFSGSGSGTDYTLTISSLQPEDFATYYCQQWSSYPLTFGQGTKLEIKRTVAAPSVFIFPPSDEQLKSGTASVVCLLNNFYPREAKVQWKVDNALQSGNSQESVTEQDSKDSTYSLSSTLTLSKADYEKHKVYACEVTHQGLSSPVTKSFNRGEC |
|  | 4.15 | R1116: TIGIT_VH_IL2/TIGIT_VL_IL2RA/PD-L1-Fab (bispecific antibody) chain 1: not shown chain 2: DIQMTQSPSSLSASVGDRVTITCRASENIYSNLAWYQQKPGKSPKLLVYAASHLPDGVPSRFSGSGSGTDYSLTISSLQPEDFATYYCQHFWGTPRTFGQGTKLEIKGGGGSGGGGSGGGGSGGGGSGELCDDDPPEIPHATFKAMAYKEGTMLNCECKRGFRRIKSGSLYMLCTGNSSHSSWDNQCQCTSSATRNTTKQVTPQPEEQKERKTTEMQSPMQPVDQASLPGHCREPPPWENEATERIYHFVVGQMVYYQCVQGYRALHRGPAESVCKMTHGKTRWTQPQLICTG heavy: EVQLQESGPGLVKPSETLSLTCAVYGDSITSGYWNWIRKPPGKGLEYMGYISYTGSTYQNPSLKSRITFSRDTSKNQYYLKLSSVTAADTATYYCARSRAWIRTYFDYWGQGTLVTVSSASTKGPSVFPLAPSSKSTSGGTAALGCLVKDYFPEPVTVSWNSGALTSGVHTFPAVLQSSGLYSLSSVVTVPSSSLGTQTYICNVNHKPSNTKVDKRVEPKSCDKTHTCPPCPAPELLGGPSVFLFPPKPKDTLMISRTPEVTCVVVDVSHEDPEVKFNWYVDGVEVHNAKTKPREEQYNSTYRVVSVLTVLHQDWLNGKEYKCKVSNKALPAPIEKTISKAKGQPREPQVYTLPPSREEMTKNQVSLWCLVKGFYPSDIAVEWESNGQPENNYDTTPPVLDSDGSFFLYSDLTVDKSRWQQGNVFSCSVMHEALHNHYTQKSLSLSPGK light: EIVLTQSPDFQSVTPKEKVTITCSVSSSISSSNLHWYQQKPDQSPKLLIYGTSNLASGVPSRFSGSGSGTDFTLTINSLEAEDAATYYCQQWSSYPLTFGQGTKLEIKRTVAAPSVFIFPPSDEQLKSGTASVVCLLNNFYPREAKVQWKVDNALQSGNSQESVTEQDSKDSTYSLSSTLTLSKADYEKHKVYACEVTHQGLSSPVTKSFNRGEC |
| 2.39 |  | R1111: TIGIT_VH_IL15RA (sushi65 T2A, T81A, T86A)/TIGIT_VL_IL15/PD-L1-Fab (bispecific antibody) chain 1: QVQLVQSGAEVKKPGSSVKVSCKASGYSFTSYWMNWVRQAPGQGLEWIGMIRPSDSETRLNQMFKDRVTITVDKSTSTAYMELSSLRSEDTAVYYCAGIHDYGHGAYWGQGTLVTVSSGGGGSGGGGSGGGGSGGGGSGIACPPPMSVEHADIWVKSYSLYSRERYICNSGFKRKAGTSSLTECVLNKATNVAHWTTPSLKCIRDPALVHQRPAPPSTVATAGVAPQPESLSPSGKEPAASSPSSNNTAATTAEPKSSDKTHTCPPCPAPELLGGPSVFLFPPKPKDTLMISRTPEVTCVVVDVSHEDPEVKFNWYVDGVEVHNAKTKPREEQYNSTYRVVSVLTVLHQDWLNGKEYKCKVSNKALPAPIEKTISKAKGQPREPQVYTLPPSREEMTKNQVSLTCRVKGFYPSDIAVEWESNGQPENNYKTTPPVLKSDGSFFLASKLTVDKSRWQQGNVFSCSVMHEALHNHYTQKSLSLSPGK chain 2: DIQMTQSPSSLSASVGDRVTITCRASENIYSNLAWYQQKPGKSPKLLVYAASHLPDGVPSRFSGSGSGTDYSLTISSLQPEDFATYYCQHFWGTPRTFGQGTKLEIKGGGGSGGGGSGGGGSGGGGSGNWVNVISDLKKIEDLIQSMHIDATLYTESDVHPSCKVTAMKCFLLELQVISLESGDASIHNTVQDLIILANNSLSSNGNVTESGCKECEELEEKNIKEFLQSFVHIVQMFINTS heavy: QVQLQESGPGLVKPSETLSLTCAVYGDSITSGYWNWIRKPPGKGLEYIGYISYTGSTYQNPSLKSRITMSRDTSKNQYYLKLSSVTAADTAVYYCARSRAWIRTYFDYWGQGTLVTVSSASTKGPSVFPLAPSSKSTSGGTAALGCLVKDYFPEPVTVSWNSGALTSGVHTFPAVLQSSGLYSLSSVVTVPSSSLGTQTYICNVNHKPSNTKVDKRVEPKSCDKTHTCPPCPAPELLGGPSVFLFPPKPKDTLMISRTPEVTCVVVDVSHEDPEVKFNWYVDGVEVHNAKTKPREEQYNSTYRVVSVLTVLHQDWLNGKEYKCKVSNKALPAPIEKTISKAKGQPREPQVYTLPPSREEMTKNQVSLWCLVKGFYPSDIAVEWESNGQPENNYDTTPPVLDSDGSFFLYSDLTVDKSRWQQGNVFSCSVMHEALHNHYTQKSLSLSPGK light: DIQMTQSPSSLSASVGDRVTITCSVSSSISSSNLHWYQQKPGKAPKPWIYGTSNLASGVPSRFSGSGSGTDYTLTISSLQPEDFATYYCQQWSSYPLTFGQGTKLEIKRTVAAPSVFIFPPSDEQLKSGTASVVCLLNNFYPREAKVQWKVDNALQSGNSQESVTEQDSKDSTYSLSSTLTLSKADYEKHKVYACEVTHQGLSSPVTKSFNRGEC |
|  | 2.99 | R1120: TIGIT_VH_IL18R1_D1D2D3/TIGIT_VL_IL18/PD-L1-Fab (bispecific antibody) chain 1: QVQLVQSGAEVKKPGSSVKVSCKASGYSFTSYWMNWVRQAPGQGLEWIGMIRPSDSETRLNQMFKDRVTITVDKSTSTAYMELSSLRSEDTAVYYCAGIHDYGHGAYWGQGTLVTVSSGGGGSGGGGSGGGGSGGGGSGCTSRPHITVVEGEPFYLKHCSCSLAHEIETTTKSWYKSSGSQEHVELNPRSSSRIALHDCVLEFWPVELNDTGSYFFQMKNYTQKWKLNVIRRNKHSCFTERQVTSKIVEVKKFFQITCENSYYQTLVNSTSLYKNCKKLLLENNKNPTIKKNAEFEDQGYYSCVHFLHHNGKLFNITKTFNITIVEDRSNIVPVLLGPKLNHVAVELGKNVRLNCSALLNEEDVIYWMFGEENGSDPNIHEEKEMRIMTPEGKWHASKVLRIENIGESNLNVLYNCTVASTGGTDTKSFIEPKSSDKTHTCPPCPAPELLGGPSVFLFPPKPKDTLMISRTPEVTCVVVDVSHEDPEVKFNWYVDGVEVHNAKTKPREEQYNSTYRVVSVLTVLHQDWLNGKEYKCKVSNKALPAPIEKTISKAKGQPREPQVYTLPPSREEMTKNQVSLTCRVKGFYPSDIAVEWESNGQPENNYKTTPPVLKSDGSFFLASKLTVDKSRWQQGNVFSCSVMHEALHNHYTQKSLSLSPGK chain 2: not shown heavy: EVQLQESGPGLVKPSETLSLTCAVYGDSITSGYWNWIRKPPGKGLEYMGYISYTGSTYQNPSLKSRITFSRDTSKNQYYLKLSSVTAADTATYYCARSRAWIRTYFDYWGQGTLVTVSSASTKGPSVFPLAPSSKSTSGGTAALGCLVKDYFPEPVTVSWNSGALTSGVHTFPAVLQSSGLYSLSSVVTVPSSSLGTQTYICNVNHKPSNTKVDKRVEPKSCDKTHTCPPCPAPELLGGPSVFLFPPKPKDTLMISRTPEVTCVVVDVSHEDPEVKFNWYVDGVEVHNAKTKPREEQYNSTYRVVSVLTVLHQDWLNGKEYKCKVSNKALPAPIEKTISKAKGQPREPQVYTLPPSREEMTKNQVSLWCLVKGFYPSDIAVEWESNGQPENNYDTTPPVLDSDGSFFLYSDLTVDKSRWQQGNVFSCSVMHEALHNHYTQKSLSLSPGK light: EIVLTQSPDFQSVTPKEKVTITCSVSSSISSSNLHWYQQKPDQSPKLLIYGTSNLASGVPSRFSGSGSGTDFTLTINSLEAEDAATYYCQQWSSYPLTFGQGTKLEIKRTVAAPSVFIFPPSDEQLKSGTASVVCLLNNFYPREAKVQWKVDNALQSGNSQESVTEQDSKDSTYSLSSTLTLSKADYEKHKVYACEVTHQGLSSPVTKSFNRGEC |
